Positions count from the first letter of the chain named. In names and notes the source's numbering stands.

The chains are these.
T1: TNFR1 (Homo sapiens, UniProt P19438)
T1 chain: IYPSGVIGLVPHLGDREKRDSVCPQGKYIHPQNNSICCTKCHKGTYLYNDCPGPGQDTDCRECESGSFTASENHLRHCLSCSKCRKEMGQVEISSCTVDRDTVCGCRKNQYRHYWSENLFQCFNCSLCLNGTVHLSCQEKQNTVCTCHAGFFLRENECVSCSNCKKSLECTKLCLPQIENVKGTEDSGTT

B1: E10M (designed binder)
chain: MTLQELLREMALRRAEAEAFRYALELLAEKFPEQKEYLLDLAEEIESQIRSLSGVDVEDVRKFLDKEWAWVKELLAEHPAELAEVEAARAARLAELRAEVEAKVAA
B2: E86G (designed binder)
chain: B1 chain with M10E, E86G
B3: I45C (designed binder)
chain: B1 chain with M10E, I45C
B4: L64D (designed binder)
chain: B1 chain with M10E, L64D
B5: L12P (designed binder)
chain: B1 chain with M10E, L12P
B6: E43S (designed binder)
chain: B1 chain with M10E, E43S
B7: R8E (designed binder)
chain: B1 chain with R8E, M10E
B8: R50H (designed binder)
chain: B1 chain with M10E, R50H
B9: V104D (designed binder)
chain: B1 chain with M10E, V104D
B10: P79K (designed binder)
chain: B1 chain with M10E, P79K
B11: A94K (designed binder)
chain: B1 chain with M10E, A94K
B12: R89C (designed binder)
chain: B1 chain with M10E, R89C
B13: L39P (designed binder)
chain: B1 chain with M10E, L39P
B14: A98N (designed binder)
chain: B1 chain with M10E, A98N
B15: A102H (designed binder)
chain: B1 chain with M10E, A102H
B16: L75F (designed binder)
chain: B1 chain with M10E, L75F
B17: E77G (designed binder)
chain: B1 chain with M10E, E77G
B18: E33C (designed binder)
chain: B1 chain with M10E, E33C
B19: W68L (designed binder)
chain: B1 chain with M10E, W68L
B20: A76I (designed binder)
chain: B1 chain with M10E, A76I
B21: K66S (designed binder)
chain: B1 chain with M10E, K66S
B22: R61K (designed binder)
chain: B1 chain with M10E, R61K

The target of the test is T1, TNFR1. Kind of test: yeast display SC50.
On to B1, for which the “apparent Kd (screen)” value was 2480 pM.
To B2 belongs 539 pM; to B3, 2480 pM; to B4, 26900 pM.
To B5 belongs 1050 pM; to B6, 490 pM.
Then B7, with 490 pM; and B8, with 539 pM; and B9, with 718 pM.
As for B10, the “apparent Kd (screen)” value was 593 pM.
For B11, the “apparent Kd (screen)” value is 653 pM.
Take B12: the “apparent Kd (screen)” value worked out at 653 pM.
With B13, the “apparent Kd (screen)” value was 5840 pM.
To B14 belongs 869 pM; to B15, 1160 pM.
Turning to B16, the “apparent Kd (screen)” value is 1270 pM.
To B17 belongs 593 pM; to B18, 593 pM.
Regarding B19, the “apparent Kd (screen)” value was determined as 539 pM.
To B20 belongs 653 pM; to B21, 490 pM; to B22, 446 pM.

(Values after publication PMC12416549 (2024).)
